The text below walks through data of US20220332804A1 (CSL INNOVATION, published 2022).

Test in all cases: SPR, KD relative to WT C2;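 also: biacore SPR at 37 °C, anti-C2 mAbs captured via immobilised goat anti-human IgG, C2 alanine or serine surface mutants as analytes, 1:1 model fitted, double-referenced sensograms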
Background: SPR reads the build-up and loss of mass on a sensor chip optically.

For experiment [1], the target named is T1, human C2 D282A (human, UniProt P06681 21-752).
T1 sequence: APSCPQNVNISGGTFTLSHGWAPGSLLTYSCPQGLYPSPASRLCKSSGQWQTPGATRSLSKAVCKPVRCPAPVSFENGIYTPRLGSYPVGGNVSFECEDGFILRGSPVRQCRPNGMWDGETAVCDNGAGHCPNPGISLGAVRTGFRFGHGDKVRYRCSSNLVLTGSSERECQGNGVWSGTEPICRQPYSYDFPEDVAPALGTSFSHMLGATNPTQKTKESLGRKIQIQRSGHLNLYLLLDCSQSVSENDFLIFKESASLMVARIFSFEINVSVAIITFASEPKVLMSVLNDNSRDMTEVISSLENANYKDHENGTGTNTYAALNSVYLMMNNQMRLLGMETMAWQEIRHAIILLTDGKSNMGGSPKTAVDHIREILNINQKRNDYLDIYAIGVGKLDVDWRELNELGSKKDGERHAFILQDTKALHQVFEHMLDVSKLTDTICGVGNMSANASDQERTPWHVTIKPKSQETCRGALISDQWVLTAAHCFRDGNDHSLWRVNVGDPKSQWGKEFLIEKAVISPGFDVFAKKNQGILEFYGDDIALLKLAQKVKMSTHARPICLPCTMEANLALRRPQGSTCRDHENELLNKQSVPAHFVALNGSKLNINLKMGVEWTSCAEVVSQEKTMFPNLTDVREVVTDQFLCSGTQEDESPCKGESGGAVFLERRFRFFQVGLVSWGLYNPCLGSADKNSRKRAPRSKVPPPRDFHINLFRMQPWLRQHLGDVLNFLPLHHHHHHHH
Method: (§1) Surface plasmon resonance (SPR, Biacore) was used for all binding affinity analyses. In brief, goat anti-human IgG was directly immobilised onto the carboxymethyl dextran surface of CM5 sensorchips to approximately 12,000 RU using standard NHS/EDC chemistry at pH 5. The immobilised antibody surface was pre-conditioned with ten injections of polyclonal human IgG (Privigen 60 s) prepared at 1 μg/mL. Ligands (anti-C2 mAbs) were captured at the beginning of each cycle as described below. An adjacent spot or flow cell in which only Polyclonal IgG was capture was used as a reference surface. The goat anti-human IgG Fc antibody surface was regenerate in 100 mM H3PO4, injected for 45 seconds at the end of each cycle. Experiments were performed at 37° C. and the flow rate of each experiment was kept constant at 30 μL/min.
(§2) Sensogram data was double-referenced against a reference anti-IgG surface (i.e. minus anti-C2 mAb) and blank buffer injections obtained within each experiment. The binding data was fit to 1:1 (kinetic or steady-state) model using local Rmax and null refraction index (RI=0) when appropriate. Buffers and solutions were filtered (0.22 μm) prior to use.

Experiment [2] deals with T2, human C2 D431A (human, UniProt P06681 21-752).
T2 sequence: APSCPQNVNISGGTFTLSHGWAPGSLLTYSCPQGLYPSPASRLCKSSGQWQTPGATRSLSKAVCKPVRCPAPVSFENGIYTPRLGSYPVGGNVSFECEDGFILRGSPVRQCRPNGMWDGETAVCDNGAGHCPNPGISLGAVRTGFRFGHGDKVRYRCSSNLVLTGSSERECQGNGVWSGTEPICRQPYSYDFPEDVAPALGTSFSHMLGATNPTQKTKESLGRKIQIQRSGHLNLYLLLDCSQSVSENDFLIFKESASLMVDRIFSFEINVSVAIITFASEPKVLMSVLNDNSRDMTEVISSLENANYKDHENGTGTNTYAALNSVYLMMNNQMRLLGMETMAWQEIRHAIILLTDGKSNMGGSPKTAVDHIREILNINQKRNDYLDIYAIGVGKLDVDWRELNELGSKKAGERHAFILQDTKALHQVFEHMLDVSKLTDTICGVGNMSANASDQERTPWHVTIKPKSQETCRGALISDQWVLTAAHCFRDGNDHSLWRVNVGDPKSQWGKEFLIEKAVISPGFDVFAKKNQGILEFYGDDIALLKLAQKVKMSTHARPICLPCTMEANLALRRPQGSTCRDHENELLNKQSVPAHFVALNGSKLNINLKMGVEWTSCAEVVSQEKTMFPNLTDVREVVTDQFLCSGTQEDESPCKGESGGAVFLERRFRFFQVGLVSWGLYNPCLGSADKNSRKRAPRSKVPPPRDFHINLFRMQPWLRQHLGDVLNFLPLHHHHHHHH
Method: as §1, §2

The target in experiment [3] is T3, human C2 E275A (human, UniProt P06681 21-752).
T3 sequence: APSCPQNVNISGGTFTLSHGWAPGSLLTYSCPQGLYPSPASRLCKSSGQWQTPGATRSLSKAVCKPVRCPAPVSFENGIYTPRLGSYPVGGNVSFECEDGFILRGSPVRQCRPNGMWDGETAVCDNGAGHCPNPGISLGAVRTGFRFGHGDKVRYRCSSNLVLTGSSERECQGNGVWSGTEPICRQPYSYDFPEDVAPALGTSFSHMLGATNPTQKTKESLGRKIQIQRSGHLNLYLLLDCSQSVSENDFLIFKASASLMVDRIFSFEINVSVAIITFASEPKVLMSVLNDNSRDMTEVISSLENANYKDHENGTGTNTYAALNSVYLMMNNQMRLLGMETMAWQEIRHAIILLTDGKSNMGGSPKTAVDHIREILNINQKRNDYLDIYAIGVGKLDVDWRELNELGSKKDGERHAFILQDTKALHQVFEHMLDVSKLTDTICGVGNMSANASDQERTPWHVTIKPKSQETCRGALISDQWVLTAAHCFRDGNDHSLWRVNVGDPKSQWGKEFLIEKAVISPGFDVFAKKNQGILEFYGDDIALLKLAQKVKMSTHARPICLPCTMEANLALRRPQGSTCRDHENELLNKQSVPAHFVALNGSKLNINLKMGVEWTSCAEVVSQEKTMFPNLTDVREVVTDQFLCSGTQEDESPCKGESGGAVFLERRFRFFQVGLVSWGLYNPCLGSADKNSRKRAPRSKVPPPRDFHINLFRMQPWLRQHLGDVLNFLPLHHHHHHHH
Method: as §1, §2

The target in experiment [4] is T4, human C2 D441A (human, UniProt P06681 21-752).
T4 sequence: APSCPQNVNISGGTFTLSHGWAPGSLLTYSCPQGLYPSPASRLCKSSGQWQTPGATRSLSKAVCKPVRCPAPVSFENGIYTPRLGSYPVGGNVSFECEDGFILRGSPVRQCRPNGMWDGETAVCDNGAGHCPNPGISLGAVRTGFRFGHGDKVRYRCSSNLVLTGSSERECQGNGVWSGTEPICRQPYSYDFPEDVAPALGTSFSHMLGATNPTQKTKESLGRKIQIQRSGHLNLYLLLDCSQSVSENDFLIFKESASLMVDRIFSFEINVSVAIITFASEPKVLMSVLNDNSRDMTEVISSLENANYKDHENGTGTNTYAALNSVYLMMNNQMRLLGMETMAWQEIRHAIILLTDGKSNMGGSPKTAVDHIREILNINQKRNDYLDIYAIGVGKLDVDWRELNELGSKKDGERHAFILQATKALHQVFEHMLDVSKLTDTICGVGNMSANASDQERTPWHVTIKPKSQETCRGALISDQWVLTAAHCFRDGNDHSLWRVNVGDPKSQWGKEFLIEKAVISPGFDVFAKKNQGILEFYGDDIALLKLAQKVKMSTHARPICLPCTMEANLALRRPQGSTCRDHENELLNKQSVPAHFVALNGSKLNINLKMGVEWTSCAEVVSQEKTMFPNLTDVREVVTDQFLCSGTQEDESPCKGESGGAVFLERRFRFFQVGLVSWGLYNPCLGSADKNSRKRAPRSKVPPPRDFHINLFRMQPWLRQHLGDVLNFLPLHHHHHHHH
Method: as §1, §2

B1: RF16-226 (antibody, human IgG4 S228P, lambda)
heavy: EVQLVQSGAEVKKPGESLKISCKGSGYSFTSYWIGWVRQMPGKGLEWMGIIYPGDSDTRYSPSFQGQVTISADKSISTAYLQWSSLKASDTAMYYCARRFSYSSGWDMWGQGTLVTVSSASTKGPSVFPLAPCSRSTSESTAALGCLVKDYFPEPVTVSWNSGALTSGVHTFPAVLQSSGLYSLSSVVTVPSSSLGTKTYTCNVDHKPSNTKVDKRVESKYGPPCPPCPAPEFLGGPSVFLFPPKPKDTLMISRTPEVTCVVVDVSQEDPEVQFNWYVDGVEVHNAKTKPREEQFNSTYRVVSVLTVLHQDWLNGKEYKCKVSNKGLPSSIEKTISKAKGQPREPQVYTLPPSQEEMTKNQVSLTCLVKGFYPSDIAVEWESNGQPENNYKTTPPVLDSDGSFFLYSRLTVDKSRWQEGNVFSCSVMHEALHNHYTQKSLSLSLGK
light: SYELTQPPSVSVSPGQTARITCSGDALTSKYVAWYQQKSGLAPLLVIYEDTRRPSGIPAKFSGSSSGSVATLTISGAHGDDEADYYCYSTDASGHQRVFGGGTKLTVLSQPKAAPSVTLFPPSSEELQANKATLVCLISDFYPGAVTVAWKADGSPVKAGVETTKPSKQSNNKYAASSYLSLTPEQWKSHRSYSCQVTHEGSTVEKTVAPTECS
notes: pH-dependent anti-C2 antibody from a phage display library; also called WT
For B1, the Fold diff in experiment [1] is 1 fold; in experiment [2], 4 fold; in experiment [3], 1 fold; in experiment [4], 6 fold.
